Literature values, collected in paper PMC4659487.

Target: MurC (Escherichia coli) (UniProt P17952)

## MurC (from UniProt P17952)
  Kd: 1000 nM
